For this assay, the target named is T1, FLAG-BARD1-BRCT, deubiquitinated by His-USP15 in vitro (UniProt Q99728 568-777).
T1 construct: BARD1 C-terminal BRCT domain; also called deubiquitinated BARD1-BRCT domain
T1 sequence (looked up): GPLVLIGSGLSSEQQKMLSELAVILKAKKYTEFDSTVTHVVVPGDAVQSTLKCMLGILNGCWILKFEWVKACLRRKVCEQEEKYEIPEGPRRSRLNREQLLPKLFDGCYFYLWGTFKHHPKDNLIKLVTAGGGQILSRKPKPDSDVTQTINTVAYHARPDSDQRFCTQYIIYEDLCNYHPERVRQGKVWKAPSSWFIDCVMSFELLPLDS
As to the kind of experiment: pull-down; in vitro binding assay: BARD1-BRCT purified by tandem IP and left on FLAG beads, untreated or deubiquitinated by His-USP15, incubated with GST or GST-HP1γ. Particulars: both partners purified.

Consider one molecule from PMC6420636, “The deubiquitylating enzyme USP15 regulates homologous recombination repair and cancer cell response to PARP inhibitors” (Nature Communications, 2019).

B1: GST-HP1γ (natural protein)
chain: not shown
notes: HP1γ; plasmid a gift from Naoko Tanese; source: E. coli BL21, purified (glutathione Sepharose 4B)
Turning to B1, the binding result is “binds”.
